The record followed here is paper PMC5800818, “A Numb–Mdm2 fuzzy complex reveals an isoform-specific involvement of Numb in breast cancer” (The Journal of Cell Biology, 2018).

Non-standard residues stand in square brackets, D forms with d. No end group written: not given here. pY = N[C@@H](Cc1ccc(OP(=O)(O)O)cc1)C(=O)O

Holding throughout (details): both partners purified
For experiment [1], the target named is T1, Numb-PTBi (Numb^20–175), purified (human, UniProt P49757 20-175).
T1 construct: For NMR the protein was isotope-labelled; source: E. coli BL21 Rosetta pLysS, purified (NTA beads, Superdex-200)
T1 sequence (looked up): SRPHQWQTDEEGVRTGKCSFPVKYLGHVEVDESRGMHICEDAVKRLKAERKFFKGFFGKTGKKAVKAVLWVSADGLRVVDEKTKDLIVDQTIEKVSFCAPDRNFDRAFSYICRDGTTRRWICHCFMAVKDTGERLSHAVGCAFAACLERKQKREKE
Put plainly: crystal structure; Numb-PTBi with a 1.3 molar excess of GPpY peptide; hanging drops at 20 °C, 25% PEG 3350, 0.2 M lithium sulfate, 0.1 M Bis-Tris pH 6; space groups F222 and P212121.

The target of experiment [2] is T2, Numb PTBi (Numb^20–175), His fusion (human, UniProt P49757 20-175).
T2 construct: source: bacterially expressed as His fusion, purified
T2 sequence (looked up): T1 sequence (looked up)
Put plainly: pull-down; GST-Mdm2 fragments (1 µM) on GSH beads, purified Numb fragments (5 µM in Fig. 1 F; 2 and 4 µM or 1 and 2 µM in Fig. 6), 2 h at 4 °C, 10 mM Hepes pH 7.5, 0.15 M NaCl, 5% glycerol, 0.1% Tween-20; Coomassie staining.

The target of experiment [3] is T1, Numb-PTBi (Numb^20–175), purified. The experiment is described as above.
In experiment [4] the target is T3, rhodamine-labeled Mdm2^216–302 (human, UniProt Q00987-11 216-302, rhodamine label (site not stated)).
T3 construct: as m32 with the label; source: purified, rhodaminated in vitro
T3 sequence (Q00987 210-296): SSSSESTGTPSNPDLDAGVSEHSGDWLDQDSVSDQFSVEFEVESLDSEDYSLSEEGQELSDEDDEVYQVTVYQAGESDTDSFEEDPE
Briefly: fluorescence polarisation; 50 nM rhodaminated Mdm2 216–302 with increasing concentrations of the ligand; 10 mM Tris-HCl pH 7.5, 0.15 M NaCl, 0.5 mM EDTA, 1 mM DTT.

B1: GPpY phosphopeptide (AYIGPpYL) (peptide)
peptide: AYIGP[pY]L
notes: also called GPpY peptide; source: synthetic peptide (United Biosystems)
In the case of B1, the binding result in experiment [1] is listed as “binds”.

B2: GST-Mdm2^250–290 (domain or fragment, human, UniProt Q00987-11 250-290, looked up)
chain: QFSVEFEVESLDSEDYSLSEEGQELSDEDDEVYQVTVYQAG
notes: Mdm2 residues 250–290, a short stretch of the acidic domain; also called minimal Mdm2 fragment; source: E. coli BL21 Rosetta, purified (Glutathione Sepharose)
Consider B2, for which the binding result in experiment [2] and in experiment [3] was “binds” each time.

B3: Numb-PTBo, purified (domain or fragment)
chain: SRPHQWQTDEEGVRTGKCSFPVKYLGHVEVDESRGMHICEDAVKRLKATGKKAVKAVLWVSADGLRVVDEKTKDLIVDQTIEKVSFCAPDRNFDRAFSYICRDGTTRRWICHCFMAVKDTGERLSHAVGCAFAACLERKQKREKE
For the molecule B3, the “fold reduction of binding affinity against PTBi” value in experiment [4] is approximately 30 fold.
